# Results as given in patent US20230382979A1 (ADAPTIVE BIOTECHNOLOGIES, published 2023).
# Numbering of substitutions follows the chain as printed.
# B1: antibody 1856 (antibody, V domains shown)
# VH: EVRLVESGGGLVKPGGSLRLSCAASGFSFSLYTMNWVRQAPGKGLEWVSYISSSSSYRYYADSVKGRFSVSRDNAKNTLYLEMNGLRAEDTAVYYCARDGYCPRGVCTYYGMDVWGQGTTVTVSA
# VL: EIVMTQSPATLSVSPGERATLSCRASQTIGIRLAWYQQKPGQAPRLLIYDATIRATGIPARFSGSGSGTDFTLTISGLQSEDFAVYYCQRYNNWPPVYTFGQGTKLEMK
# B2: antibody 1867 (antibody, V domains shown)
# VH: B1 VH with R3Q, L31T, K65R, T78S, E82Q, A88V, R104N, A125S
# VL: not shown
# B3: antibody 1888 (antibody, V domains shown)
# VH: B1 VH with R3Q, S28T, L31S, T33S, R58K, T78S, E82Q, M83L, A88V, R104K
# VL: EIVMTQSPATLSVSPGERATLSCRASQSVRSRLAWFQQKPGQPPRLLIYDASIRATGIPDRFSGSGSGTEFTLIISGLQSEDFAVYYCQQYDNWPPAYTFGQGTKLEIK
# B4: antibody 1963 (antibody, V domains shown)
# VH: QVQLVQSGAEVKKPGASVKVSCKASGYTFTSNYIHWLRQAPGQGLEWMGIIKPSGTSTISAQKFRGRVAMTRDTSTSTVYMELSSLRFEDTAIYYCARDAKRALETWGQGTMVTVSS
# VL: QSVLTQPPSVSAAPGQKVTISCSGSSSNIGNNYVSWYQQLPGTAPKLLIYDNNKRPSGIPDRFSGSRSGTSATLGITGLQTGDEADYYCGTWDSSLSAWVFGGGTKLTVL
# B5: antibody 1969 (antibody, V domains shown)
# VH: QVQLVQSGAEVKKPGASVKVSCKASGYSFTDYYIHWVRQAPGQGLEWMGIIKPSAGATVYAQKFRGRVSMTSDTSTGTVYMELSGLKSEDTAVYYCARDYNRSFDFWGQGTLVTVSS
# VL: QSVLTQPPSVSAAPGQTVTISCAGSTSNIGKNYVSWYQHLPGTAPKLLIYDNIKRPSGIPDRFSGSTSGTSATLGITELQTGDEADYYCGTWDSSLSAYVFGTGTKVTVL
# B6: antibody 2050 (antibody, V domains shown)
# VH: QVQLVQSGAEVKKPGASVKVPCKVSGYTFTDHFIHWVRQAPGQGLEWMGWISPNSGGRNYTQKFQGRVTLTRDTAITTVHMDLSSLTPDDTAVYYCARDVRWAQLQGGFDLWGQGTMVTVSS
# VL: QSALTQPASVSGSPGQSITISCTGTSSDVGSYNLVSWYQQHPGKAPKLMIYEVSKRPSGVSNRFSGSKSGNTASLTISGLQADDEADYYCCSYAGDNNFLFGGGTSLTVL
# B7: antibody 2075 (antibody, V domains shown)
# VH: QVQLVQSGAEVKKPGSSVKVSCTASGGTFSIYAFSWVRQAPGQGLEWMGGIIPISGTAGYAQKFQGRVTITADESTSTAYMELSSLRSEDTAIYYCARKYRYCSGSRCYTYFDYWGQGTLVTVSS
# VL: DIQMTQSPSSLSASVGDRVTITCRASQSISSFLNWYQQKPGKAPKLLIYAASSLQSGVPSRFSGSGSGTDFTLTISSLQPEDSATYYCQQSYSTITFGQGTRLEIK
# B8: antibody 2564 (antibody, V domains shown)
# VH: QVQLVQSGAEVKKPGSSVRVSCKASGGTFISYTFNWVRQAPGQGLEWMGRIIPIFGIVNYAQKFQGRVTIAADKSTSTAYMELSSLRSEDTAMYYCATATVDYDSGEEQSSFDPWGQGTLVTVSS
# VL: EIVLTQSPGTLSLSPGERATLSCRASQSVSSSYLAWYQQKAGQTPRLLIYAASSRATGVPDRFSGSGSGTDFTLTISRLEAEDFAVYYCQQSWTFGQGTKVEIK
# B9: antibody 941 (antibody, V domains shown)
# VH: QVQLVQSGAEVKKPGSSVKVSCKASGGTFSNSAINWVRQAPGQGLEWMGGIIPLFGAADYAQKFQARVTITADKSTTTSYMELSSLRSEDTAVYYCARDTLEHDDVWGNFRLSLPLSFWGQGTLVTVSS
# VL: not shown
# B10: antibody 2794 (antibody, V domains shown)
# VH: QVQLVQSGAEVKKPGSSLKVSCKASGGTFNNFAISWVRQAPGQGPEWMGRINPILSAAKYAQKFQGRLTITADKSTTTAYMELSSLRSEDTAVYYCAPTGTGESWWFDPWGQGTLVTVSS
# VL: QSVLTQPPSASGTPGQRVTISCSGSSSNIGTNYVYWYQQLPGTAPKVLIYGNNQRPSGVPDRFSGSKSGSSASLAISGLRSEDEADYYCAAWDDSLSGPVFGGGTKLTVL
# B11: antibody 3091 (antibody, V domains shown)
# VH: QMQLVQSGPEVKKPGTSVKVSCKASGFTFSSSAVQWVRQARGQGLEWIGWIVVGSGNANYAQKLQERVSITRDMSTSTAYMELSSLRPEDTAVYYCAAPHCSRTICHDGFDMWGQGTMVTVSS
# VL: EIVLTQSPGTLSLSPGERATLSCRASQSVRSSYLAWYQQKPGQAPRLLMFVASSRATGIPDRFSGSGSGTDFTLTISRLEPEDFAVYYCQQYDTSPWTFGQGTKVEIK
# B12: antibody 3995 (antibody, V domains shown)
# VH: EVQLVQSGAEVKKPGSSVKVSCKASGGTFSMHTIRWVRQAPGQGLEWMGRIIPMLGIVNYAQKFQGRVTISADKSTSTAYMELSSLTSEDTAMYYCAKGSHDVFDIWGQGTMVTVSS
# VL: not shown
# B13: antibody 4042 (antibody, V domains shown)
# VH: QITLKESGPTLVKPTQTLTLTCTFSGFSLSSGGVGVGWIRQPPGKALEWLALIYWDDDKRYRPSLKSRLTITRDTSTNQVVLTMTNMDPVDTATYFCARHQIATVFDHWGQGTLVTVSS
# VL: QSALTQPASVSGSPGQSITISCTGTSSDVGGYNYVSWYQQHPGKAPKLMIYEVSNRPSGVSSRFSGSKSGNTASLTISGLQAEDEADYYCSSYTRSSPLVAFGGGTKVTVL
# Target: SARS-CoV (2003) spike protein borne on lentiviral pseudovirus (SARS-CoV (2003), UniProt P59594 14-1255)
# Assay: cell-based or functional assay
row,Binder,"Pseudo Neut, SARS-CoV 2003 IC50"
1,B1,> 111 nM
2,B2,135 nM
3,B3,> 111 nM
4,B4,69 nM
5,B5,97 nM

# Target: SARS-CoV-2 spike protein, WA1/2020, borne on lentiviral pseudovirus (SARS-CoV-2, WA01/2020 strain, UniProt P0DTC2 14-1273)
# Assay: cell-based or functional assay
row,Binder,"Pseudo Neut, WA1/2020 IC50 (pM)"
1,B3,> 111 pM
2,B6,427 pM
3,B7,783 pM
4,B8,160 pM
5,B9,610 pM
6,B10,232 pM
7,B11,59 pM
8,B12,3120 pM
9,B13,209 pM

# Target: T1, S2 subunit of the SARS-CoV-2 spike protein, WA01/2020 strain (SARS-CoV-2, WA01/2020 strain, UniProt P0DTC2 686-1213)
# Assay: dose-response ELISA; antigen taken from the column 'Structural data'
row,Binder,EC50
1,B2,1.09 nM
2,B4,0.041 nM
3,B5,0.035 nM

# Target: T2, SARS-CoV-2 nucleocapsid (N) protein (SARS-CoV-2, UniProt P0DTC9 1-419)
# Assay: ELISA screening, antibody concentration not given
row,Binder,binding result
1,B1,no binding (tested: not printed)
2,B2,no binding (tested: not printed)
3,B3,no binding (tested: not printed)
4,B4,no binding (tested: not printed)
5,B5,no binding (tested: not printed)

# Target: S1 subunit of the SARS-CoV-2 spike protein, WA01/2020 strain (SARS-CoV-2, WA01/2020 strain, UniProt P0DTC2 16-685)
# Assay: ELISA screening, antibody concentration not given
row,Binder,binding result
1,B1,no binding (tested: not printed)
2,B2,no binding (tested: not printed)
3,B3,no binding (tested: not printed)
4,B4,no binding (tested: not printed)
5,B5,no binding (tested: not printed)

# Target: T1, S2 subunit of the SARS-CoV-2 spike …
# Assay: ELISA, antibody at 0.1 ug/mL
row,Binder,binding result
1,B6,no binding (tested: 0.1 ug/mL)
2,B7,no binding (tested: 0.1 ug/mL)
3,B8,no binding (tested: 0.1 ug/mL)
4,B9,no binding (tested: 0.1 ug/mL)
5,B10,no binding (tested: 0.1 ug/mL)
6,B11,no binding (tested: 0.1 ug/mL)
7,B12,no binding (tested: 0.1 ug/mL)
8,B13,no binding (tested: 0.1 ug/mL)

# Target: T2, SARS-CoV-2 nucleocapsid (N) protein
# Assay: ELISA, antibody at 0.1 ug/mL
row,Binder,binding result
1,B6,no binding (tested: 0.1 ug/mL)
2,B7,no binding (tested: 0.1 ug/mL)
3,B8,no binding (tested: 0.1 ug/mL)
4,B9,no binding (tested: 0.1 ug/mL)
5,B10,no binding (tested: 0.1 ug/mL)
6,B11,no binding (tested: 0.1 ug/mL)
7,B12,no binding (tested: 0.1 ug/mL)
8,B13,no binding (tested: 0.1 ug/mL)
